{
  "source": "paper PMC10967716",
  "experiment_in_all_cases": "SEC",
  "key": {"[1]": {"molecular_target": "α-Methylacyl-CoA racemase from Mycobacterium tuberculosis, H126A mutant (M. tuberculosis) (UniProt O06543)"}, "[2]": {"molecular_target": "α-Methylacyl-CoA racemase from Mycobacterium tuberculosis, E241A mutant (M. tuberculosis) (UniProt O06543)"}, "[3]": {"molecular_target": "α-Methylacyl-CoA racemase from Mycobacterium tuberculosis, D156A mutant (M. tuberculosis) (UniProt O06543)"}},
  "data": [
    {"substance": "α-Methylacyl-CoA racemase from Mycobacterium tuberculosis, H126A mutant (from UniProt O06543 1-360) (enzyme)", "values": [
      {"measurement": "stoichiometry N", "setting": "[1]", "value": 2}
    ]},
    {"substance": "α-Methylacyl-CoA racemase from Mycobacterium tuberculosis, E241A mutant (from UniProt O06543 1-360) (enzyme)", "values": [
      {"measurement": "stoichiometry N", "setting": "[2]", "value": 2}
    ]},
    {"substance": "α-Methylacyl-CoA racemase from Mycobacterium tuberculosis, D156A mutant (from UniProt O06543 1-360) (enzyme)", "values": [
      {"measurement": "stoichiometry N", "setting": "[3]", "value": 2}
    ]}
  ]
}
